Reference: patent publication US10562947B2, “Compositions and methods for preventing or treating diseases, conditions or processes characterized by aberrant fibroblast proliferation and extracellular matrix deposition” (MOERAE MATRIX, INC., priority 2011, dated 2020)
Where a SMILES comes first, the peptide text is derived from it.

Assays:
Test in all cases: Kinase Profiling Assay
Type in all cases: biochemical
MAPKAP-K2(h) = MAPKAP-K2(h) (Homo sapiens, UniProt P49137); conditions: for MAPKAP-K2(h) % activity: 100 μM peptide
MAPKAP-K2(h), sequence (P49137 whole entry): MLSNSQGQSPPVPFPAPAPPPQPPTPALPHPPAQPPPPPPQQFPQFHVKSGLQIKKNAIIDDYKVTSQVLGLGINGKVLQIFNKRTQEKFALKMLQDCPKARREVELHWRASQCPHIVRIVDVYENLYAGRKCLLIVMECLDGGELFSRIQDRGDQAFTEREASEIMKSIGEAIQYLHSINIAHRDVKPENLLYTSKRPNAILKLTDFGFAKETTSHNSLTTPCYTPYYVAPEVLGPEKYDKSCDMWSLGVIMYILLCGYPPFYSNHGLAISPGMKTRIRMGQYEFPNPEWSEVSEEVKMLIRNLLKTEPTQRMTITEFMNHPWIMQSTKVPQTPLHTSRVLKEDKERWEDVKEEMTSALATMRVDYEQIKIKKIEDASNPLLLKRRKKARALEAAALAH
Description: (§1) Every kinase activity measurement was conducted in duplicate.
(§2) In addition to determining the IC50 of the compound, the specificity of MK2 inhibitory peptides was assessed by examining activities of all 266 human kinases available for testing in the Millipore kinase profiling service (Table 1).

MAPKAP-K3(h) = MAPKAP-K3(h) (Homo sapiens, UniProt Q16644); conditions: for MAPKAP-K3(h) % activity: 100 μM peptide
MAPKAP-K3(h), sequence (Q16644 whole entry): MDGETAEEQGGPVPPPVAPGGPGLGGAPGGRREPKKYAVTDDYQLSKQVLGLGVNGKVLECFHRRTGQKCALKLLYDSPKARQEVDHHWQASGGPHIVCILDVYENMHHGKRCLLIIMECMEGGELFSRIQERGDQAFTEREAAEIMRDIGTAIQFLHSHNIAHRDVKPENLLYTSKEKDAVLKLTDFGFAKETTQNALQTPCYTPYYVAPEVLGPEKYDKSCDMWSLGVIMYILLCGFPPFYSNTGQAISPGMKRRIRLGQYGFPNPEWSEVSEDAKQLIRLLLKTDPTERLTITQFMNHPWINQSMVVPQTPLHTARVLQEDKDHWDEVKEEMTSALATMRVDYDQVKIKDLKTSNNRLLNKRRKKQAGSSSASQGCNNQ
Description: as §1, §2

GCK(h) = biological target: T1, GCK(h) (Homo sapiens, UniProt Q12851); conditions: 100 μM peptide
T1 construct: purchased Millipore
T1 sequence (Q12851 1-820): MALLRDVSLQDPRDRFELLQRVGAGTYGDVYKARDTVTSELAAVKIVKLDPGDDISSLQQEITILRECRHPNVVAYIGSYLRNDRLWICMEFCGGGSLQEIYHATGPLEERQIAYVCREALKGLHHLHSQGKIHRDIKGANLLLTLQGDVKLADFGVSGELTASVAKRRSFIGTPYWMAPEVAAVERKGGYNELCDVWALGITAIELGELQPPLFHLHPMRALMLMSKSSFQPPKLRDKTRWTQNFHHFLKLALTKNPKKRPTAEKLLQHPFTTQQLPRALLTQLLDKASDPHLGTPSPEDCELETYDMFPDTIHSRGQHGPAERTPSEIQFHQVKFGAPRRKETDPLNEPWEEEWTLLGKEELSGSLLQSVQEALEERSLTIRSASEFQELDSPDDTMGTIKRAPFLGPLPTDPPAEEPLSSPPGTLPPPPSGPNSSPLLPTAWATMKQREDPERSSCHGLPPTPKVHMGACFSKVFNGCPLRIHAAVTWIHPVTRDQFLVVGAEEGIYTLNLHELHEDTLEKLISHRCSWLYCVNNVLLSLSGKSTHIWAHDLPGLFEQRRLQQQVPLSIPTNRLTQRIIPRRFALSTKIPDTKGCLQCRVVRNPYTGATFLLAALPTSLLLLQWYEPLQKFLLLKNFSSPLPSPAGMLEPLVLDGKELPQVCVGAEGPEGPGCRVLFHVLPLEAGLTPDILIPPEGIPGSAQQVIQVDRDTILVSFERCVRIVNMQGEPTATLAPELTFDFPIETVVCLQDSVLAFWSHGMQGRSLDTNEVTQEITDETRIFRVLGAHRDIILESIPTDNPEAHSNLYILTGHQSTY
Description: as §1, §2

LKB1(h) = biological target: T2, LKB1(h) (Homo sapiens, UniProt Q15831); conditions: 100 μM peptide
T2 sequence (Q15831 1-433): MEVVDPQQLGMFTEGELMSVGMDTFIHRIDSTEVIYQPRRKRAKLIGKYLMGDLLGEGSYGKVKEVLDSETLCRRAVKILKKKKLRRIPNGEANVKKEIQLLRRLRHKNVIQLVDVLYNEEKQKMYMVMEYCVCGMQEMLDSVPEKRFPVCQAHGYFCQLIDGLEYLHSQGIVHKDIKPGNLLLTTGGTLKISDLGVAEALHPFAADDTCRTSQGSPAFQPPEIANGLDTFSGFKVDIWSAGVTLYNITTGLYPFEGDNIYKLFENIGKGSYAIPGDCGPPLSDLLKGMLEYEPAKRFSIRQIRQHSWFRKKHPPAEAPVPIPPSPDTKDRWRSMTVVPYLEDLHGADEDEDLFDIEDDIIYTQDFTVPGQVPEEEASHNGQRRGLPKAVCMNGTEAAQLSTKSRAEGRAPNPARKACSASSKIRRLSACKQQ
T2 sequence (Q7RTN6 1-431 partner): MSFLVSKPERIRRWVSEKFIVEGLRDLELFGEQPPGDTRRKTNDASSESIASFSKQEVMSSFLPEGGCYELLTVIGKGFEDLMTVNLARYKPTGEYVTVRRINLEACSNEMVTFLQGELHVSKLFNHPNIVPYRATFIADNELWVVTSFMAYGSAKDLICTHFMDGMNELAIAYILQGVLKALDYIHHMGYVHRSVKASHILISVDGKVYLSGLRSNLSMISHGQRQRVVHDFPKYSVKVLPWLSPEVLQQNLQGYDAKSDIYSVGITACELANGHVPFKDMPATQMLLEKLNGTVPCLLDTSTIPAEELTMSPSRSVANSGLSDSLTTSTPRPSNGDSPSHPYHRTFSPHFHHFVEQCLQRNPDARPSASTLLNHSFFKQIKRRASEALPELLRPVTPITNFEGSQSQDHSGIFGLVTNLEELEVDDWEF
T2 sequence (Q9Y376 1-341 partner): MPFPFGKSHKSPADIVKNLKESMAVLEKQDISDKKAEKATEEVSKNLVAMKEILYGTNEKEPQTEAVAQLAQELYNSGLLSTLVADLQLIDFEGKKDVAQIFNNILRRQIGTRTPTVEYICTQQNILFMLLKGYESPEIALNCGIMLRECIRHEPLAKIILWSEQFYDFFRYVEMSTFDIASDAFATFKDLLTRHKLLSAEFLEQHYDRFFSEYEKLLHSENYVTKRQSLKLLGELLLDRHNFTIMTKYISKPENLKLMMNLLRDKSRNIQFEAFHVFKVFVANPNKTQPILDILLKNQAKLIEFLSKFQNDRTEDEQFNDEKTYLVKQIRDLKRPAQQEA
Description: as §1, §2

MKK6(h) = biological target: T3, MKK6(h) (Homo sapiens, UniProt P52564); conditions: 100 μM peptide
T3 sequence (P52564 1-334): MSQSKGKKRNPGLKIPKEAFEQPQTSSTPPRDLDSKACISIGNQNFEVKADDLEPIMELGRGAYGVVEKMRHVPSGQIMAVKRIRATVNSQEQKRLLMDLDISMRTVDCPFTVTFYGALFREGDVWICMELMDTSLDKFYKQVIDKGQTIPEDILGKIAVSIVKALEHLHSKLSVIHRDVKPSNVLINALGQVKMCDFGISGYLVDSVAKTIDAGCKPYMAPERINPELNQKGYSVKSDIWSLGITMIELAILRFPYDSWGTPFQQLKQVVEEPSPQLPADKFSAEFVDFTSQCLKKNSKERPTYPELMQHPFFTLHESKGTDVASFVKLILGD
Description: as §1, §2

MLCK(h) = MLCK(h) (Homo sapiens, UniProt Q9H1R3); conditions: 100 μM peptide
MLCK(h), sequence (Q9H1R3 2-596 limits assumed): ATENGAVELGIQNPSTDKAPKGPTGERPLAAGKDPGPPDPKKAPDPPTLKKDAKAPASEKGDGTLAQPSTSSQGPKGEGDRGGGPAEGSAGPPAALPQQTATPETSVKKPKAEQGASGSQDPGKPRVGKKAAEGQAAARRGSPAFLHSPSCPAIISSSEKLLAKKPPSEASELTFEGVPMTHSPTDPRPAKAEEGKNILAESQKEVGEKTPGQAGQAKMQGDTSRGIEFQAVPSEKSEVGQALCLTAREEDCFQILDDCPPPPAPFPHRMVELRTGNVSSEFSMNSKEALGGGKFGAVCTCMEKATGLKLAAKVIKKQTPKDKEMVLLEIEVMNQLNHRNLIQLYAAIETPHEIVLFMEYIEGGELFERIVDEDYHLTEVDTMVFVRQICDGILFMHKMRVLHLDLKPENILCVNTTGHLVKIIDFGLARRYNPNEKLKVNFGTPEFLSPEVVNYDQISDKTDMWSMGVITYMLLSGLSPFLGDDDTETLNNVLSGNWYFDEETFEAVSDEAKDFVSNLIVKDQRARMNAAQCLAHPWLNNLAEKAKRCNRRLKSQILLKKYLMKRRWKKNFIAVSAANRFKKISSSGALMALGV
Description: as §1, §2

Met(D1246N)(h) = Met(D1246N)(h) (Homo sapiens, UniProt P08581, D1228N); conditions: 100 μM peptide
Description: as §1, §2

Met(M1268T)(h) = Met(M1268T)(h) (Homo sapiens, UniProt P08581, M1250T); conditions: 100 μM peptide
Description: as §1, §2

PDGFRα(V561D)(h) = PDGFRα(V561D)(h) (Homo sapiens, UniProt P16234, V561D); conditions: 100 μM peptide
PDGFRα(V561D)(h), sequence (P16234 24-1089 V561D): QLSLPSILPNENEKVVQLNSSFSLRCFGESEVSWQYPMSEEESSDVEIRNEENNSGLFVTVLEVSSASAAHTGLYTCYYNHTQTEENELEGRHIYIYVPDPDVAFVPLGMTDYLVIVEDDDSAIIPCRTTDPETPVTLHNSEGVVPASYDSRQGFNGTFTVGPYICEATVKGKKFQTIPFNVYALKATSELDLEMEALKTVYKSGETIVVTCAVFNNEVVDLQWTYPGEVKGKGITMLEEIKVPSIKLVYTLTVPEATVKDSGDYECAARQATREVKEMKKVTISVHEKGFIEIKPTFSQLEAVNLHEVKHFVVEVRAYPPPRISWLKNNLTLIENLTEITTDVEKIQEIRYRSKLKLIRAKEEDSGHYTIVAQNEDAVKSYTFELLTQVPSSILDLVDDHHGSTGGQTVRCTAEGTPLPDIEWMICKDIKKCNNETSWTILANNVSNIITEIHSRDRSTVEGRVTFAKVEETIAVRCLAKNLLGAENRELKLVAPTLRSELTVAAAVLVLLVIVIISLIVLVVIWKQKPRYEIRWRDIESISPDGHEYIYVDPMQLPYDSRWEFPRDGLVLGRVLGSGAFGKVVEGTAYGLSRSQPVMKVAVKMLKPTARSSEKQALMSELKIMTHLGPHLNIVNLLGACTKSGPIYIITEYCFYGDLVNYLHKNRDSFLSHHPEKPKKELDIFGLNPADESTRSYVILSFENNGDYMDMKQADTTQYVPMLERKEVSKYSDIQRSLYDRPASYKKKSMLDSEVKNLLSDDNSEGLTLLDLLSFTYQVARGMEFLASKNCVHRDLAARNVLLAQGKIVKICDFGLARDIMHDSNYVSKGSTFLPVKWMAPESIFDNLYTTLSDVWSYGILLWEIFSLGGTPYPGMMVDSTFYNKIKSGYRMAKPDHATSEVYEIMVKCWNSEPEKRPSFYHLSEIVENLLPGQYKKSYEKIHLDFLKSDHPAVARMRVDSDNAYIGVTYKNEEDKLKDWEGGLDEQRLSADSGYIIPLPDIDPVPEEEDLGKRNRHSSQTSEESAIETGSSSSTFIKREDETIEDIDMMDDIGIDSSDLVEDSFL
Description: as §1, §2

PKBγ(h) = PKBγ(h) (Homo sapiens, UniProt Q9Y243); conditions: 100 μM peptide
PKBγ(h), sequence (Q9Y243 whole entry): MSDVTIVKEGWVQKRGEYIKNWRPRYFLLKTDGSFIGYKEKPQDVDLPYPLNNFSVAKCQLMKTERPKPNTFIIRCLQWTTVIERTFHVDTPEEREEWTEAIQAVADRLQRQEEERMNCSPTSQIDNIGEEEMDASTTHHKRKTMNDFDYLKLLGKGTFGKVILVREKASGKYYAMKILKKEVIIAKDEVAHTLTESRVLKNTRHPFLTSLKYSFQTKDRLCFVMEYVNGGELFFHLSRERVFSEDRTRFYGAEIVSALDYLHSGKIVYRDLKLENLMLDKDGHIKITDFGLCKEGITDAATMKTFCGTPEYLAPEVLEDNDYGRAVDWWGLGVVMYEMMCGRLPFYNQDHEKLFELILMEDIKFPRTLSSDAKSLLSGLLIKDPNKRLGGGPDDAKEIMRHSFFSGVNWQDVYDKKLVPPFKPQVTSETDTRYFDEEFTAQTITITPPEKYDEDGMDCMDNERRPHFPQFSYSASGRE
Description: as §1, §2

Compound	inhibition at 100 µM (MAPKAP-K2(h); read-out: inhibition of kinase activity of MK2) [%]	inhibition at 100 µM (MAPKAP-K3(h); read-out: inhibition of kinase activity of MK3) [%]	GCK(h) % activity (GCK(h)) [%]	LKB1(h) % activity (LKB1(h)) [%]	MAPKAP-K2(h) % activity (MAPKAP-K2(h)) [%]	MAPKAP-K3(h) % activity (MAPKAP-K3(h)) [%]	MKK6(h) % activity (MKK6(h)) [%]	MLCK(h) % activity (MLCK(h)) [%]	Met(D1246N)(h) % activity (Met(D1246N)(h)) [%]	Met(M1268T)(h) % activity (Met(M1268T)(h)) [%]	PDGFRα(V561D)(h) % activity (PDGFRα(V561D)(h)) [%]	PKBγ(h) % activity (PKBγ(h)) [%]
CC(C)C[C@H](NC(=O)[C@H](C)NC(=O)[C@H](CCCCN)NC(=O)[C@H](C)NC(=O)[C@H](CCCNC(=N)N)NC(=O)[C@H](C)NC(=O)[C@H](CCC(N)=O)NC(=O)[C@H](CCCNC(=N)N)NC(=O)[C@H](C)NC(=O)[C@H](C)NC(=O)[C@H](C)NC(=O)[C@H](CCCNC(=N)N)NC(=O)[C@H](C)NC(=O)[C@@H](N)Cc1ccc(O)cc1)C(=O)N[C@@H](C)C(=O)N[C@@H](CCCNC(=N)N)C(=O)N[C@@H](CCC(N)=O)C(=O)N[C@@H](CC(C)C)C(=O)NCC(=O)N[C@H](C(=O)N[C@@H](C)C(=O)N[C@@H](C)C(=O)O)C(C)C [MMI-0100] (H-YARAAARQARAKALARQLGVAA-OH; N-terminus and C-terminus assumed)	> 65	> 65										
FAKLAARLYRKALARQLGVAA [MMI-0300]			70	101	5	3	48	2	82	255	82	20
KAFAKLAARLYRKALARQLGVAA [MMI-0400]			66	89	5	7	44	1	31	265	100	41
HRRIKAWLKKIKALARQLGVAA (Mammalian) [MMI-0500]			30	51	9	9	18	0	90	239	146	20
YARAAARQARAKALNRQLGVA (Mammalian) [MMI-0200]			99	99	35	39	98		149	143		
